Biological target: full-length GST-PRMT5 (UniProt O14744 1-637)
Assay: pull-down

Sequence of full-length GST-PRMT5 (O14744 whole entry): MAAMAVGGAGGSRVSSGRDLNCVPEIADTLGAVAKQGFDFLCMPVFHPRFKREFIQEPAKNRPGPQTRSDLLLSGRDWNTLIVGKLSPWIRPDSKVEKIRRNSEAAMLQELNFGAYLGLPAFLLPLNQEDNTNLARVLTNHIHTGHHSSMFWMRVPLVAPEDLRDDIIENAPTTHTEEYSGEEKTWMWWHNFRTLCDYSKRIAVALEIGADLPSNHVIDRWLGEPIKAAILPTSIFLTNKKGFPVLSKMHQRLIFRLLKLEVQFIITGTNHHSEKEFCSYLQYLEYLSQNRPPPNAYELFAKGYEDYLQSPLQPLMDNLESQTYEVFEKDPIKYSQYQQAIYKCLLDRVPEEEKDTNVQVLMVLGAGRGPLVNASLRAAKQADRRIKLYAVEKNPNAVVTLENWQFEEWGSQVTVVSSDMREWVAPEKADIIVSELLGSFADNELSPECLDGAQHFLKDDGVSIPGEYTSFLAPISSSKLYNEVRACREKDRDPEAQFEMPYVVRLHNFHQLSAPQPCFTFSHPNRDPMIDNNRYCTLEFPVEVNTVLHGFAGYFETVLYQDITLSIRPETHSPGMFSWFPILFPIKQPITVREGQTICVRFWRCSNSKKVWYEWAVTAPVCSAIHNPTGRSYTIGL

- binding result: binds
B1: full-length His-CAPG (natural protein)
chain: MYTAIPQSGSPFPGSVQDPGLHVWRVEKLKPVPVAQENQGVFFSGDSYLVLHNGPEEVSHLHLWIGQQSSRDEQGACAVLAVHLNTLLGERPVQHREVQGNESDLFMSYFPRGLKYQEGGVESAFHKTSTGAPAAIKKLYQVKGKKNIRATERALNWDSFNTGDCFILDLGQNIFAWCGGKSNILERNKARDLALAIRDSERQGKAQVEIVTDGEEPAEMIQVLGPKPALKEGNPEEDLTADKANAQAAALYKVSDATGQMNLTKVADSSPFALELLISDDCFVLDNGLCGKIYIWKGRKANEKERQAALQVAEGFISRMQYAPNTQVEILPQGHESPIFKQFFKDWK

— PMC5928908 (Theranostics, 2018)
